Among the data in PMC9485624 are stoichiometry N values, retold here.

The target in test [1] is recombinant truncated CrrB (135-353 amino acids) (Klebsiella pneumoniae). The test can be described thus: not stated; purified recombinant His-tagged protein after Ni-NTA; how dimer and monomer were told apart is not stated in the text (Supplementary Figure S1).
For test [2], the target named is recombinant truncated CrrB (135-353 amino acids) P151L mutant (Klebsiella pneumoniae). The description is as above.

For the substance “recombinant truncated CrrB (135-353 amino acids) (domain or fragment)”, in test [1], the stoichiometry N is 2.
For the substance “recombinant truncated CrrB (135-353 amino acids) P151L mutant (domain or fragment)”, in test [2], the stoichiometry N was found to be 2.

Usually stoichiometry N stands for a count of units in the complex or per binding partner.
